In PMC6351828:

B1: Disrupted‐in‐schizophrenia‐1 (DISC1)‐Flag, wild type, Q9NRI5 F210A; S211A; F212A; I213A (protein)
chain: MPGGGPQGAPAAAGGGGVSHRAGSRDCLPPAACFRRRRLARRPGYMRSSTGPGIGFLSPAVGTLFRFPGGVSGEESHHSESRARQCGLDSRGLLVRSPVSKSAAAPTVTSVRGTSAHFGIQLRGGTRLPDRLSWPCGPGSAGWQQEFAAMDSSETLDASWEAACSDGARRVRAAGSLPSAELSSNSCSPGCGPEVPPTPPGSHSAFTSSAAAARLSLGSAGERGEAEGCPPSREAESHCQSPQEMGAKAASLDGPHEDPRCLSRPFSLLATRVSADLAQAARNSSRPERDMHSLPDMDPGSSSSLDPSLAGCGGDGSSGSGDAHSWDTLLRKWEPVLRDCLLRNRRQMEVISLRLKLQKLQEDAVENDDYDKAETLQQRLEDLEQEKISLHFQLPSRQPALSSFLGHLAAQVQAALRRGATQQASGDDTHTPLRMEPRLLEPTAQDSLHVSITRRDWLLQEKQQLQKEIEALQARMFVLEAKDQQLRREIEEQEQQLQWQGCDLTPLVGQLSLGQLQEVSKALQDTLASAGQIPFHAEPPETIRSLQERIKSLNLSLKEITTKVCMSEKFCSTLRKKVNDIETQLPALLEAKMHAISGNHFWTAKDLTEEIRSLTSEREGLEGLLSKLLVLSSRNVKKLGSVKEDYNRLRREVEHQETAYETSVKENTMKYMETLKNKLCSCKCPLLGKVWEADLEACRLLIQSLQLQEARGSLSVEDERQMDDLEGAAPPIPPRLHSEDKRKTPLKVLEEWKTHLIPSLHCAGGEQKEESYILSAELGEKCEDIGKKLLYLEDQLHTAIHSHDEDLIQSLRRELQMVKETLQAMILQLQPAKEAGEREAAASCMTAGVHEAQA
B2: Disrupted‐in‐schizophrenia‐1 (DISC1)‐Flag, wild type, Q9NRI5 W327A; D328A; T329A; L330A (protein)
chain: MPGGGPQGAPAAAGGGGVSHRAGSRDCLPPAACFRRRRLARRPGYMRSSTGPGIGFLSPAVGTLFRFPGGVSGEESHHSESRARQCGLDSRGLLVRSPVSKSAAAPTVTSVRGTSAHFGIQLRGGTRLPDRLSWPCGPGSAGWQQEFAAMDSSETLDASWEAACSDGARRVRAAGSLPSAELSSNSCSPGCGPEVPPTPPGSHSAFTSSFSFIRLSLGSAGERGEAEGCPPSREAESHCQSPQEMGAKAASLDGPHEDPRCLSRPFSLLATRVSADLAQAARNSSRPERDMHSLPDMDPGSSSSLDPSLAGCGGDGSSGSGDAHSAAAALRKWEPVLRDCLLRNRRQMEVISLRLKLQKLQEDAVENDDYDKAETLQQRLEDLEQEKISLHFQLPSRQPALSSFLGHLAAQVQAALRRGATQQASGDDTHTPLRMEPRLLEPTAQDSLHVSITRRDWLLQEKQQLQKEIEALQARMFVLEAKDQQLRREIEEQEQQLQWQGCDLTPLVGQLSLGQLQEVSKALQDTLASAGQIPFHAEPPETIRSLQERIKSLNLSLKEITTKVCMSEKFCSTLRKKVNDIETQLPALLEAKMHAISGNHFWTAKDLTEEIRSLTSEREGLEGLLSKLLVLSSRNVKKLGSVKEDYNRLRREVEHQETAYETSVKENTMKYMETLKNKLCSCKCPLLGKVWEADLEACRLLIQSLQLQEARGSLSVEDERQMDDLEGAAPPIPPRLHSEDKRKTPLKVLEEWKTHLIPSLHCAGGEQKEESYILSAELGEKCEDIGKKLLYLEDQLHTAIHSHDEDLIQSLRRELQMVKETLQAMILQLQPAKEAGEREAAASCMTAGVHEAQA
B3: Disrupted‐in‐schizophrenia‐1 (DISC1)‐Flag, wild type, Q9NRI5 Y646A; N647A; R648A; L649A (protein)
chain: MPGGGPQGAPAAAGGGGVSHRAGSRDCLPPAACFRRRRLARRPGYMRSSTGPGIGFLSPAVGTLFRFPGGVSGEESHHSESRARQCGLDSRGLLVRSPVSKSAAAPTVTSVRGTSAHFGIQLRGGTRLPDRLSWPCGPGSAGWQQEFAAMDSSETLDASWEAACSDGARRVRAAGSLPSAELSSNSCSPGCGPEVPPTPPGSHSAFTSSFSFIRLSLGSAGERGEAEGCPPSREAESHCQSPQEMGAKAASLDGPHEDPRCLSRPFSLLATRVSADLAQAARNSSRPERDMHSLPDMDPGSSSSLDPSLAGCGGDGSSGSGDAHSWDTLLRKWEPVLRDCLLRNRRQMEVISLRLKLQKLQEDAVENDDYDKAETLQQRLEDLEQEKISLHFQLPSRQPALSSFLGHLAAQVQAALRRGATQQASGDDTHTPLRMEPRLLEPTAQDSLHVSITRRDWLLQEKQQLQKEIEALQARMFVLEAKDQQLRREIEEQEQQLQWQGCDLTPLVGQLSLGQLQEVSKALQDTLASAGQIPFHAEPPETIRSLQERIKSLNLSLKEITTKVCMSEKFCSTLRKKVNDIETQLPALLEAKMHAISGNHFWTAKDLTEEIRSLTSEREGLEGLLSKLLVLSSRNVKKLGSVKEDAAAARREVEHQETAYETSVKENTMKYMETLKNKLCSCKCPLLGKVWEADLEACRLLIQSLQLQEARGSLSVEDERQMDDLEGAAPPIPPRLHSEDKRKTPLKVLEEWKTHLIPSLHCAGGEQKEESYILSAELGEKCEDIGKKLLYLEDQLHTAIHSHDEDLIQSLRRELQMVKETLQAMILQLQPAKEAGEREAAASCMTAGVHEAQA

Key:
[1] = biological target: Purified recombinant LC3 protein, Q9GZQ8; assay: ELISA; settings: chain shown with the change, read off a plot
LC3‐GFP, Q9GZQ8 = assay: co-immunoprecipitation (anti-GFP agarose) with quantified immunoblot; settings: chain shown with the change; HeLa cells co-transfected with LC3-GFP and DISC1-Flag constructs; parent: 1.0; read off a plot

Binder | response ([1]; LC3B 10 nM, parent: est. 0.68) | response ([1]; LC3B 50 nM, parent: est. 1.3) | response ([1]; LC3B 100 nM, parent: est. 2.4) | ratio to parent (LC3‐GFP, Q9GZQ8)
PGSHSAFTSSAAAARLSLGS [DISC1 FSFI peptide (a.a.200–219) F210A; S211A; F212A; I213A] | 0.1 OD (450 nm) | 0.12 OD (450 nm) | 0.12 OD (450 nm) | 
B1 |  |  |  | 0.21
B2 |  |  |  | 0.9
B3 |  |  |  | 1.1
